B1: glmS ribozyme (parent)
chain: AUAAAAGCGCCAGAACUACAGAAAUGUAGUUGACGAGGAGGAGGUUUAUCGAAUUUUCGGCGGAUGCCUCCAAA

± gives the standard error. For part of these data: Fewer inactive variants are shown than the library holds.

Conditions in all cases: with glucosamine-6-phosphate
Variants of B1 are the subject of data set [1]. The data set is described as follows: kcat; higher = faster cleavage; RNA array. Put shortly:
(§1)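 Tiles bearing barcoded ribozyme variants, transcribed in situ by E. coli RNA polymerase on sequenced MiSeq chips, were imaged over ~14 h at 37 °C using a hybridised Cy3 probe. Glucosamine-6-phosphate was supplied at 40 μM to 10 mM in HEPES/KCl/Mg(OAc)2 buffer. kobs came from one- or two-exponential decay fits to normalised per-tile medians, and weighted Michaelis–Menten fits then provided kcat and KM.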

Variants of B1 are the subject of data set [2]. The data set is described as follows: KM; higher = weaker cofactor use; RNA array. Put shortly:
as §1

Variants of B1 are the subject of data set [3]. The data set is described as follows: self-cleavage kobs at 160 uM GlcN6P; higher = faster cleavage; RNA array. Put shortly:
as §1

Data set [4] covers variants of B1. The data set is described as follows: self-cleavage kobs at 640 uM GlcN6P; higher = faster cleavage; RNA array. The method, boiled down:
as §1

Data set [5] covers variants of B1. The data set is described as follows: self-cleavage kobs at 2500 uM GlcN6P; higher = faster cleavage; RNA array. The method, boiled down:
as §1

The variants in data set [6] derive from B1. The data set is described as follows: self-cleavage kobs at 10000 uM GlcN6P; higher = faster cleavage; RNA array. Put shortly:
as §1

The variants in data set [7] derive from B1. The data set is described as follows: self-cleavage kobs at 40 uM GlcN6P; higher = faster cleavage; RNA array. Put shortly: as §1

Results on 18 variants are retold here after the supplement of paper PMC7125110.

On to G40C A53C, for which the kcat in the data set with glucosamine-6-phosphate [1] came to 0.000789 ± 2e-05 s⁻¹. The Michaelis-Menten constant (KM) with glucosamine-6-phosphate [2] turned out to be 2.24 ± 0.11 mM. The “self-cleavage kobs at 160 uM GlcN6P” value in the data set with glucosamine-6-phosphate [3] came out at 5.46e-05 ± 1.9e-05 s⁻¹. The “self-cleavage kobs at 640 uM GlcN6P” value with glucosamine-6-phosphate [4] was 0.000176 ± 2.5e-05 s⁻¹. Moreover, the “self-cleavage kobs at 2500 uM GlcN6P” value in the data set with glucosamine-6-phosphate [5] was determined as 0.0004 ± 6.6e-05 s⁻¹. In the data set with glucosamine-6-phosphate [6], the “self-cleavage kobs at 10000 uM GlcN6P” value worked out at 0.000652 ± 7.2e-05 s⁻¹.

For U47G G59U, the catalytic constant (kcat) in the data set with glucosamine-6-phosphate [1] turned out to be 2.47e-05 ± 4.4e-06 s⁻¹. Also, the “self-cleavage kobs at 2500 uM GlcN6P” value with glucosamine-6-phosphate [5] stood at 3.31e-05 ± 1.7e-05 s⁻¹. Also, in the data set with glucosamine-6-phosphate [6], the “self-cleavage kobs at 10000 uM GlcN6P” value was determined as 2.13e-05 ± 1e-05 s⁻¹.

Consider C67U C71U, for which, in the data set with glucosamine-6-phosphate [1], the kcat came out at 0.00245 ± 0.0012 s⁻¹. In the data set with glucosamine-6-phosphate [7], the “self-cleavage kobs at 40 uM GlcN6P” value was determined as 6.24e-05 ± 6.8e-06 s⁻¹. For the same variant, in the data set with glucosamine-6-phosphate [3], the “self-cleavage kobs at 160 uM GlcN6P” value came out at 0.000128 ± 1.6e-05 s⁻¹. In addition, in the data set with glucosamine-6-phosphate [4], the “self-cleavage kobs at 640 uM GlcN6P” value stood at 0.000403 ± 3.1e-05 s⁻¹. In the data set with glucosamine-6-phosphate [5], the “self-cleavage kobs at 2500 uM GlcN6P” value was 0.00121 ± 0.00026 s⁻¹. Also, the “self-cleavage kobs at 10000 uM GlcN6P” value with glucosamine-6-phosphate [6] worked out at 0.00213 ± 0.00029 s⁻¹.

For the variant A12U U31A, the kcat in the data set with glucosamine-6-phosphate [1] turned out to be 0.0283 ± 0.0065 s⁻¹. For the same variant, in the data set with glucosamine-6-phosphate [2], the KM was 2.89 ± 0.88 mM. Besides, in the data set with glucosamine-6-phosphate [7], the “self-cleavage kobs at 40 uM GlcN6P” value amounted to 0.000416 ± 7.3e-05 s⁻¹. The “self-cleavage kobs at 160 uM GlcN6P” value in the data set with glucosamine-6-phosphate [3] came to 0.00177 ± 0.00045 s⁻¹. Besides, in the data set with glucosamine-6-phosphate [4], the “self-cleavage kobs at 640 uM GlcN6P” value was 0.00457 ± 0.0011 s⁻¹. Besides, the “self-cleavage kobs at 2500 uM GlcN6P” value with glucosamine-6-phosphate [5] is 0.0106 ± 0.0026 s⁻¹. The “self-cleavage kobs at 10000 uM GlcN6P” value in the data set with glucosamine-6-phosphate [6] worked out at 0.0257 ± 0.0049 s⁻¹.

As for G32A C34U, the catalytic constant (kcat) with glucosamine-6-phosphate [1] was < 1e-05 s⁻¹. In addition, the “self-cleavage kobs at 640 uM GlcN6P” value with glucosamine-6-phosphate [4] is < 1e-05 s⁻¹.

As for G38U C70U, the kcat with glucosamine-6-phosphate [1] amounted to 1.27e-05 ± 2.6e-06 s⁻¹.

Take G38C A52G: the kcat with glucosamine-6-phosphate [1] was < 1e-05 s⁻¹. Moreover, in the data set with glucosamine-6-phosphate [2], the KM amounted to 0.0309 ± 0.014 mM. In addition, in the data set with glucosamine-6-phosphate [3], the “self-cleavage kobs at 160 uM GlcN6P” value was < 1e-05 s⁻¹. Further, the “self-cleavage kobs at 2500 uM GlcN6P” value with glucosamine-6-phosphate [5] is < 1e-05 s⁻¹. The “self-cleavage kobs at 10000 uM GlcN6P” value with glucosamine-6-phosphate [6] is < 1e-05 s⁻¹.

On to A6C U56G, for which the kcat with glucosamine-6-phosphate [1] is 4.98e-05 ± 4.1e-06 s⁻¹. The KM with glucosamine-6-phosphate [2] amounted to 4.2 ± 0.92 mM. In the data set with glucosamine-6-phosphate [3], the “self-cleavage kobs at 160 uM GlcN6P” value was < 1e-05 s⁻¹. Besides, in the data set with glucosamine-6-phosphate [6], the “self-cleavage kobs at 10000 uM GlcN6P” value was determined as 3.5e-05 ± 1.3e-05 s⁻¹.

For the variant A39U U46C, in the data set with glucosamine-6-phosphate [1], the kcat was determined as 0.0117 ± 0.0022 s⁻¹. Moreover, the KM with glucosamine-6-phosphate [2] came out at 2.78 ± 0.64 mM. In addition, the “self-cleavage kobs at 40 uM GlcN6P” value with glucosamine-6-phosphate [7] came out at 0.000154 ± 1.5e-05 s⁻¹. For the same variant, the “self-cleavage kobs at 160 uM GlcN6P” value in the data set with glucosamine-6-phosphate [3] is 0.000743 ± 0.00014 s⁻¹. Moreover, the “self-cleavage kobs at 640 uM GlcN6P” value with glucosamine-6-phosphate [4] stood at 0.00284 ± 0.00046 s⁻¹. Besides, the “self-cleavage kobs at 2500 uM GlcN6P” value with glucosamine-6-phosphate [5] came to 0.00541 ± 0.0019 s⁻¹. Besides, the “self-cleavage kobs at 10000 uM GlcN6P” value in the data set with glucosamine-6-phosphate [6] stood at 0.00883 ± 0.0013 s⁻¹.

Turning to G29U C50A G66U, the catalytic constant (kcat) with glucosamine-6-phosphate [1] came out at 1.4e-05 ± 4.4e-06 s⁻¹.

On to C11U G32U, for which, in the data set with glucosamine-6-phosphate [1], the kcat came to 0.000176 ± 8e-05 s⁻¹. Further, in the data set with glucosamine-6-phosphate [6], the “self-cleavage kobs at 10000 uM GlcN6P” value came to 3.94e-05 ± 5.4e-06 s⁻¹.

In the case of A12U A64C, the kcat with glucosamine-6-phosphate [1] is 0.000692 ± 7.8e-05 s⁻¹. Moreover, the Michaelis constant (KM) with glucosamine-6-phosphate [2] came out at 3.58 ± 0.66 mM. Also, the “self-cleavage kobs at 160 uM GlcN6P” value with glucosamine-6-phosphate [3] is 4.03e-05 ± 1.6e-05 s⁻¹. The “self-cleavage kobs at 640 uM GlcN6P” value with glucosamine-6-phosphate [4] worked out at 0.000107 ± 1.6e-05 s⁻¹. The “self-cleavage kobs at 2500 uM GlcN6P” value in the data set with glucosamine-6-phosphate [5] turned out to be 0.000264 ± 3.9e-05 s⁻¹. The “self-cleavage kobs at 10000 uM GlcN6P” value with glucosamine-6-phosphate [6] amounted to 0.000531 ± 7.6e-05 s⁻¹.

For A12U A64U, the kcat with glucosamine-6-phosphate [1] was found to be 0.00027 ± 2.8e-05 s⁻¹. The Michaelis constant (KM) with glucosamine-6-phosphate [2] was 2.42 ± 0.54 mM. In addition, the “self-cleavage kobs at 640 uM GlcN6P” value with glucosamine-6-phosphate [4] is 5.21e-05 ± 5.8e-06 s⁻¹. In the data set with glucosamine-6-phosphate [5], the “self-cleavage kobs at 2500 uM GlcN6P” value worked out at 0.000168 ± 1.8e-05 s⁻¹. In the data set with glucosamine-6-phosphate [6], the “self-cleavage kobs at 10000 uM GlcN6P” value worked out at 0.000211 ± 1.4e-05 s⁻¹.

As for A12C G44A A53U, in the data set with glucosamine-6-phosphate [1], the kcat was 0.000479 ± 4.3e-05 s⁻¹. Further, in the data set with glucosamine-6-phosphate [2], the KM came out at 4.57 ± 0.53 mM. The “self-cleavage kobs at 640 uM GlcN6P” value in the data set with glucosamine-6-phosphate [4] stood at 5.92e-05 ± 1.6e-05 s⁻¹. Moreover, the “self-cleavage kobs at 2500 uM GlcN6P” value in the data set with glucosamine-6-phosphate [5] amounted to 0.000169 ± 4.4e-05 s⁻¹.

As to A33C A42G, in the data set with glucosamine-6-phosphate [1], the kcat came out at 0.00107 ± 0.0002 s⁻¹. Besides, the KM with glucosamine-6-phosphate [2] is 5.24 ± 1.5 mM. Besides, the “self-cleavage kobs at 640 uM GlcN6P” value with glucosamine-6-phosphate [4] is 0.000127 ± 2e-05 s⁻¹. In addition, the “self-cleavage kobs at 2500 uM GlcN6P” value with glucosamine-6-phosphate [5] was 0.000266 ± 0.0001 s⁻¹. Further, the “self-cleavage kobs at 10000 uM GlcN6P” value with glucosamine-6-phosphate [6] came out at 0.000716 ± 0.00011 s⁻¹.

Consider U30A C58A, for which the kcat with glucosamine-6-phosphate [1] came out at 0.000164 ± 5e-05 s⁻¹. The “self-cleavage kobs at 2500 uM GlcN6P” value with glucosamine-6-phosphate [5] came to 9.07e-05 ± 2.9e-05 s⁻¹. The “self-cleavage kobs at 10000 uM GlcN6P” value with glucosamine-6-phosphate [6] was determined as 0.000114 ± 2.4e-05 s⁻¹.

A14U A15G C34G C50A G62U: in the data set with glucosamine-6-phosphate [1], the kcat stood at 1.29e-05 ± 5.5e-06 s⁻¹.

Consider G32A C58G, for which the kcat with glucosamine-6-phosphate [1] stood at 0.000211 ± 4.8e-05 s⁻¹. Besides, the KM with glucosamine-6-phosphate [2] came out at 6.46 ± 3.2 mM. Besides, the “self-cleavage kobs at 2500 uM GlcN6P” value with glucosamine-6-phosphate [5] turned out to be 5.76e-05 ± 1.7e-05 s⁻¹. For the same variant, in the data set with glucosamine-6-phosphate [6], the “self-cleavage kobs at 10000 uM GlcN6P” value was determined as 0.000129 ± 1.7e-05 s⁻¹.

As usually defined, the kcat is the number of substrate molecules converted per active site and unit of time at saturation. A word on the KM: it is the substrate concentration at which the rate is half of its maximum.
